Reference: US20200102389A1

Tests used:
[1] = biological target: recombinant soluble human HLA-G β2M MHC class I complex, monomer (human); experiment: SPR (Biacore), reference antibody against monomeric wt HLA-G complex
[2] = biological target: modified human HLA-G β2M MHC class I complex (HLA-G specific amino acids replaced by HLA-A consensus amino acids) (human); experiment: SPR (Biacore), reference antibody against degrafted HLA-G complex
[3] = biological target: human HLA-G expressed on cells (JEG3 naturally; SKOV3 HLA-G+ and PA-TU-8902 HLA-G+ transfectants) (human) (UniProt P17693); experiment: flow cytometry, JEG3 cells pre-incubated with antibody, competitor ILT2-Fc chimera

Substance	Kd [1] [nM]	koff [1] [s⁻¹]	kon [1] [M⁻¹ s⁻¹]	t½ [1] [min]	Kd [2] [nM]	koff [2] [s⁻¹]	kon [2] [M⁻¹ s⁻¹]	t½ [2] [min]	Inhibition of ILT2 binding to Jeg3 cells [3] [%]
MEM-G/11 (antibody)	12	0.00085	74000	14	13	0.0012	89000	10	
MEM/G9 (antibody)	7.7	0.0011	150000	10	300	0.036	120000	0.3	-27.9
